# From PMC11996885 (2025)
# B1: FGFR2 parental antibody F (antibody, V domains shown)
# VH: QVQLVQSGAEVKKPGESLKISCKGSGYSFTNYYIHWVRQMPGKGLEWMGAIYPDNSDTTYSPSFQGQVTISADKSISTAYLQWSSLKASDTAMYYCARGADIWGQGTLVTVSS
# VL: DIQMTQSPSSLSASVGDRVTITCRASQDIDPYLSNWYQQKPGKAPKLLIYDASNLQSGVPSRFSGSGSGTDFTLTISSLQPEDFATYYCQQTTSHPYTFGQGTKVEIK
# B2: FGFR2 parental antibody E (antibody, V domains shown)
# VH: QVQLVQSGAEVKKPGSSVKVSCKASGYIFTTYNVHWVRQAPGQGLEWIGSIYPDNGDTSYNQNFKGRATITADKSTSTAYMELSSLRSEDTAVYYCARGDFAYWGQGTLVTVSS
# VL: DIQMTQSPSSLSASVGDRVTITCKASQGVSNDYAWYQQKPGKAPKLLIYSASYRYTGVPSRFSGSGSGTDFTFTISSLQPEDIATYYCQQHSTTPYTFGQGTKLEIK
# B3: FGFR2 parental antibody A (antibody, V domains shown)
# VH: EVQLLESGGGLVQPGGSLRLSCAASGFTFSSYAMSWVRQAPGKGLEWVSAISGSGTSTYYADSVKGRFTISRDNSKNTLYLQMNSLRAEDTAVYYCARVRYNWNHGDWFDPWGQGTLVTVSS
# VL: QSVLTQPPSASGTPGQRVTISCSGSSSNIGNNYVSWYQQLPGTAPKLLIYENYNRPAGVPDRFSGSKSGTSASLAISGLRSEDEADYYCSSWDDSLNYWVFGGGTKLTVL
# B4: FGFR2 parental antibody D (antibody, V domains shown)
# VH: EVQLVESGGGLVQPGGSLRLSCAASGFPFTSTGISWVRQAPGKGLEWVGRTHLGDGSTNYADSVKGRFTISADTSKNTAYLQMNSLRAEDTAVYYCARTYGIYDTYDMYTEYVMDYWGQGTLVTVSS
# VL: DIQMTQSPSSLSASVGDRVTITCRASQDVDTSLAWYKQKPGKAPKLLIYSASFLYSGVPSRFSGSGSGTDFTLTISSLQPEDFATYYCQQSTGHPQTFGQGTKVEIK
# B5: FGFR2 parental antibody B (antibody, V domains shown)
# VH: QIQLVQSGPELKKPGETVKISCKASGYTFTDFGMNWMKQAPGKGFKWMGWINTSTGESTYADDFKGRFAFSLETSASTAYLQINNLKNEDMATYFCARNSYYGGSYGYWGQGTTLTVSS
# VL: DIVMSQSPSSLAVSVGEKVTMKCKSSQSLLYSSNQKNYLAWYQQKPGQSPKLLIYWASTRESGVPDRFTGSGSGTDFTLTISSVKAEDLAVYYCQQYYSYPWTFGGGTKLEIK
# B6: FGFR2 parental antibody C (antibody, V domains shown)
# VH: QVQLVESGGGLVKPGGSLRLSCAASGFTFSSYALSWVRQAPGKGLEWVGRIRSKIDGGTTDYAAPVKGRFTISRDDSKNTLYLQMNSLKTEDTAVYYCARDRSPSDSSAFAIWGQGTLVTVSS
# VL: DIELTQPPSVSVSPGQTASITCSGDNLGSQYVDWYQQKPGQAPVLVIYDDNDRPSGIPERFSGSNSGNTATLTISGTQAEDEADYYCQSWDSLSVVFGGGTKLTVL
# Molecular target: FGFR2 on SNU16 cells (FGFR2 amplification) (human (endogenous in SNU16), UniProt P21802 22-821)
# Sequence (P21802 22-821): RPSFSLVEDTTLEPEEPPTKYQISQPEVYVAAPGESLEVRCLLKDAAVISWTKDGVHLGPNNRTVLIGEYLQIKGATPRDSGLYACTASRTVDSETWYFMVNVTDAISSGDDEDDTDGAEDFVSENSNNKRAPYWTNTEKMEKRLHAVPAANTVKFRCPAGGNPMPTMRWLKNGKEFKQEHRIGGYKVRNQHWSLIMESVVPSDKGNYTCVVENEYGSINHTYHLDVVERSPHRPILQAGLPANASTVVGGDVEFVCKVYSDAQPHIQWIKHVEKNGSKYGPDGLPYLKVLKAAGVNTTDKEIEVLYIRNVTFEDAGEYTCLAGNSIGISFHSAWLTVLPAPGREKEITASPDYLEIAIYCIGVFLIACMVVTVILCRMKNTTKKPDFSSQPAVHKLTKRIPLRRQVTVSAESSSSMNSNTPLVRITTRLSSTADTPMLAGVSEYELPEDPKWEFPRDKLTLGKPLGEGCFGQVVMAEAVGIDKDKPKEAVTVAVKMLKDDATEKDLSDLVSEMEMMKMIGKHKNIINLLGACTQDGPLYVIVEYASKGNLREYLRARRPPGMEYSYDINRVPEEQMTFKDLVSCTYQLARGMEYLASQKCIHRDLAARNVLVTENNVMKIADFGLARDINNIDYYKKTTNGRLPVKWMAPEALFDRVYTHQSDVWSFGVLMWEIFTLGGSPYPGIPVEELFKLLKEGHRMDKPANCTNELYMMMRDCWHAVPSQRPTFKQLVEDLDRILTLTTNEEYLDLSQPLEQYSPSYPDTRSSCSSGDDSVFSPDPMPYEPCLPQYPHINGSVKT
# Assay: FACS; apparent Kd, SNU16 cells
row,Kd [nM],Binder
1,9.4,B1
2,1.77,B2
3,0.76,B3
4,1.99,B4
5,32.8,B5
6,0.15,B6
